Experimental data taken from publication doi:10.1101/2020.10.05.327064 (bioRxiv, 2020).

T1: Human Hsf1 wild type (human), Q00613
T1 chain: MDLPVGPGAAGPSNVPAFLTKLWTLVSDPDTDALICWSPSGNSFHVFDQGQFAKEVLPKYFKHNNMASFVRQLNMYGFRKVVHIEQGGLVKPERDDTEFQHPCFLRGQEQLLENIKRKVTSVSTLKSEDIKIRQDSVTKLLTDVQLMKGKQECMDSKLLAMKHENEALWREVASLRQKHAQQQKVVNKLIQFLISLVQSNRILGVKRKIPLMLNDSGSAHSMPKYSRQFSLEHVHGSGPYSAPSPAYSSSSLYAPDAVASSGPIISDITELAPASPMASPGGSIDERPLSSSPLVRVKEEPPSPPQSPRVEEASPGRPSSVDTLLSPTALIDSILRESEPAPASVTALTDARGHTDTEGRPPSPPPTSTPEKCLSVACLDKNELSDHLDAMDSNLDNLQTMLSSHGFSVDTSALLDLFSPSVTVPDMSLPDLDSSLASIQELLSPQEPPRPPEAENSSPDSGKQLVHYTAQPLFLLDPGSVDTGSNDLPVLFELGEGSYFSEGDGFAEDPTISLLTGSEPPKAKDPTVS

B1: Human Hsf1 wild type, Q00613 1-529 (natural protein)
chain: MDLPVGPGAAGPSNVPAFLTKLWTLVSDPDTDALICWSPSGNSFHVFDQGQFAKEVLPKYFKHNNMASFVRQLNMYGFRKVVHIEQGGLVKPERDDTEFQHPCFLRGQEQLLENIKRKVTSVSTLKSEDIKIRQDSVTKLLTDVQLMKGKQECMDSKLLAMKHENEALWREVASLRQKHAQQQKVVNKLIQFLISLVQSNRILGVKRKIPLMLNDSGSAHSMPKYSRQFSLEHVHGSGPYSAPSPAYSSSSLYAPDAVASSGPIISDITELAPASPMASPGGSIDERPLSSSPLVRVKEEPPSPPQSPRVEEASPGRPSSVDTLLSPTALIDSILRESEPAPASVTALTDARGHTDTEGRPPSPPPTSTPEKCLSVACLDKNELSDHLDAMDSNLDNLQTMLSSHGFSVDTSALLDLFSPSVTVPDMSLPDLDSSLASIQELLSPQEPPRPPEAENSSPDSGKQLVHYTAQPLFLLDPGSVDTGSNDLPVLFELGEGSYFSEGDGFAEDPTISLLTGSEPPKAKDPTVS
B2: Hsf1-S303E,S307E (natural protein)
chain: MDLPVGPGAAGPSNVPAFLTKLWTLVSDPDTDALICWSPSGNSFHVFDQGQFAKEVLPKYFKHNNMASFVRQLNMYGFRKVVHIEQGGLVKPERDDTEFQHPCFLRGQEQLLENIKRKVTSVSTLKSEDIKIRQDSVTKLLTDVQLMKGKQECMDSKLLAMKHENEALWREVASLRQKHAQQQKVVNKLIQFLISLVQSNRILGVKRKIPLMLNDSGSAHSMPKYSRQFSLEHVHGSGPYSAPSPAYSSSSLYAPDAVASSGPIISDITELAPASPMASPGGSIDERPLSSSPLVRVKEEPPEPPQEPRVEEASPGRPSSVDTLLSPTALIDSILRESEPAPASVTALTDARGHTDTEGRPPSPPPTSTPEKCLSVACLDKNELSDHLDAMDSNLDNLQTMLSSHGFSVDTSALLDLFSPSVTVPDMSLPDLDSSLASIQELLSPQEPPRPPEAENSSPDSGKQLVHYTAQPLFLLDPGSVDTGSNDLPVLFELGEGSYFSEGDGFAEDPTISLLTGSEPPKAKDPTVS

What was measured:
[1] = target: T1, Human Hsf1 wild type (human), Q00613; test: SEC; conditions: remark: other sources report otherwise
[2] = target: the molecule itself; test: SEC

Binder | stoichiometry N [1] | stoichiometry N [2]
B1 | 3 | 
B2 |  | 3
